Read-outs that look alike come from different tables or passages of the source.
Assays:
[1] = target: PtAUREO1a bZIP-A′α-LOV-Jα functional module (residues D145-D378) (Phaeodactylum tricornutum); experiment: SAXS
[2] = target: PtAUREO1a bZIP-A′α-LOV-Jα functional module (residues D145-D378) (Phaeodactylum tricornutum); experiment: SEC
[3] = target: PtAUREO1a bZIP-A′α-LOV-Jα functional module (residues D145-D378) (Phaeodactylum tricornutum); experiment: SEC; remark: listed apart in the source
[4] = target: PtAUREO1a bZIP-A′α-LOV-Jα functional module (residues D145-D378) (Phaeodactylum tricornutum); experiment: MST
[5] = target: PtAUREO1c (aureochrome 1c from Phaeodactylum tricornutum), full length (Phaeodactylum tricornutum); experiment: MST
[6] = target: PtAUREO1a bZIP-A′α-LOV-Jα functional module (residues D145-D378) (Phaeodactylum tricornutum); experiment: MST; remark: listed apart in the source

PtAUREO1a bZIP-A′α-LOV-Jα functional module (residues D145-D378) (domain or fragment)
stoichiometry N [1]: 2
stoichiometry N [2]: 2
stoichiometry N [3]: 2
Kd [4]: 240 to 280 nM
Kd [5]: 450 nM

PtAUREO1a (aureochrome 1a from Phaeodactylum tricornutum), full length (natural protein)
Kd [5]: 240 nM

dsDNA/bZIP-A′α-LOV-Jα complex (PtAUREO1a bZIP-A′α-LOV-Jα dimer bound to dsDNA)
Kd [6]: 2600 nM
Kd [4]: 800 nM

Reference: article PMC4937327
